Assay results reported in US20230101266A1 (GENEQUANTUM HEALTHCARE SUZHOU, published 2023).
Where a chain is given by its changes, count along the chain named.

B1: Ab0054 (antibody, human IgG1, kappa, V domains shown)
VH: QVQLVQSGAEVKKPGSSVKVSCKASGYRFTDYVINWVRQAPGQGLEWMGQIYPGSDSFHYNQKFQGRATLTADKSTNTAYMELSSLRSEDTAVYYCARFFEGLAYWGQGTLVTVSS
VL: DIQMTQSPSSLSASVGDRVTITCKASQGINNYLSWYQQKPGKAPKSLIYRANRLVDGVPSRFSGSGSGTDFTLTISSLQPEDFATYYCLQYDEFPLTFGGGTKVEIKR
notes: Humanized IgG; also called Ab0001-huV5-VL / Ab0001-huV4-VH
B2: Ab0063 (antibody, human IgG1, kappa, V domains shown)
VH: B1 VH
VL: B1 VL with D56S
notes: Humanized IgG; also called Ab0001-huV8-VL / Ab0001-huV4-VH
B3: Ab0052 (antibody, human IgG1, kappa, V domains shown)
VH: B1 VH
VL: B1 VL with T69Q, F71Y
notes: Humanized IgG; also called Ab0001-huV3-VL / Ab0001-huV4-VH
B4: Ab0064 (antibody, human IgG1, kappa, V domains shown)
VH: B1 VH with S57T
VL: B1 VL with D56S
notes: Humanized IgG; also called Ab0001-huV8-VL / Ab0001-huV5-VH
B5: Ab0062 (antibody, human IgG1, kappa, V domains shown)
VH: B1 VH with S57A
VL: B1 VL
notes: Humanized IgG; also called Ab062; Ab0001-huV5-VL / Ab0001-huV6-VH
B6: Ab0061 (antibody, human IgG1, kappa, V domains shown)
VH: B1 VH with S57T
VL: B1 VL
notes: Humanized IgG; also called Ab0001-huV5-VL / Ab0001-huV5-VH
B7: Ab0053 (antibody, human IgG1, kappa, V domains shown)
VH: B1 VH
VL: B1 VL with F71Y
notes: Humanized IgG; also called Ab0001-huV4-VL / Ab0001-huV4-VH

Target: T1, recombinant extracellular domain of human TROP2 (human, UniProt P09758 27-274)
T1 construct: extracellular domain; Commercial protein (Acrobiosystem), used as the analyte in SPR; also called Trophoblast antigen 2; GA733-1
T1 sequence (looked up): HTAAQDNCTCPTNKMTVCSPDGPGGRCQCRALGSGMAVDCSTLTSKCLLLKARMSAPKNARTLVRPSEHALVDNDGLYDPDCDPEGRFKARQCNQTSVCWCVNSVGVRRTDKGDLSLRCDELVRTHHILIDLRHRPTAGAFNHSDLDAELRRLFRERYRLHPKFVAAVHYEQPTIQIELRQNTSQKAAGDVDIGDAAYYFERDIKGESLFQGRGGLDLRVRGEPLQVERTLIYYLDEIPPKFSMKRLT
Assay: SPR, Biacore 8K, antibody captured on Protein A chip, TROP2 ECD as analyte, 25 C, 1:1 model
Method: Binding kinetics and affinity analysis are performed. Surface Plasmon Resonance (SPR) analysis is performed on a Biacore 8K (GE healthcare) with a Sensor Chip Protein A (GE healthcare) following manufacturer's instructions. All measurements are performed at 25° C. in the HBS-EP+ buffer (10 mM HEPES, pH 7.4, 150 mM NaCl, 3 mM EDTA, and 0.05% surfactant P20). About 110-140 RU (Resonance unit) of each of the purified antibodies is captured on flow cells 2, 4, 6, 8, 10, 12, 14, 16 (i.e., the reaction surface) of the sensor chip, respectively. Flow cells 1, 3, 5, 7, 9, 11, 13 and 15 are treated with the HBS-EP+ buffer to serve as reference surfaces.
Serial dilutions of the recombinant extracellular domain of human TROP2 (i.e., the analyte) (Acrobiosystem) (243, 81, 27, 9, 3, 1, 0.333, and 0.111 nM, respectively) are prepared in HBS-EP+ buffer. Capturing of the antibodies is followed by a three-minute injection (association phase) of serial dilutions of TROP2 at a flow rate of 30 μL/min and ten minutes of buffer flow (dissociation phase). The chip surface is regenerated by two pulses of 30-second injection of 10 mM Glycine-HCl pH 1.5 at a flow rate of 50 μL/min. The collected data are processed on a Biacore 8K Evaluation software using methods known in the art, comprising the following steps: (1) setting the response on the y-axis and the start of the injection on the x-axis to zero, (2) performing double referencing by firstly subtracting the reference surface data from the reaction surface data to get the analyte injection curves, and then subtracting the buffer injection curves from the analyte injection curves, and (3) performing the kinetic analysis using the 1:1 binding model with a global fit. The result for each antibody is presented as Ka (on-rate), Kd (off-rate) and KD (affinity constant) (Table 3).

| Binder | Kd | koff | kon |
| --- | --- | --- | --- |
| B1 | 0.43 nM | 0.000416 s⁻¹ | 975000 M⁻¹ s⁻¹ |
| B2 | 0.46 nM | 0.000394 s⁻¹ | 862000 M⁻¹ s⁻¹ |
| B3 | 0.31 nM | 0.000321 s⁻¹ | 1.03e+06 M⁻¹ s⁻¹ |
| B4 | 0.76 nM | 0.000547 s⁻¹ | 722000 M⁻¹ s⁻¹ |
| B5 | 0.81 nM | 0.000719 s⁻¹ | 889000 M⁻¹ s⁻¹ |
| B6 | 0.62 nM | 0.000545 s⁻¹ | 874000 M⁻¹ s⁻¹ |
| B7 | 0.32 nM | 0.000326 s⁻¹ | 1.01e+06 M⁻¹ s⁻¹ |
